# Measurements as given in article PMC3139646, “Synthesis and Investigation of a Radioiodinated F3 Peptide Analog as a SPECT Tumor Imaging Radioligand” (PLoS ONE, 2011).
# What was measured:
# [1] = system: tumor-bearing athymic nude mice; conditions: mouse, in vivo, iv
# Description: The remaining radioactivity consisted primarily of two hydrophobic radiometabolites representing 47% and 18% of the total plasma radioactivity. […] In contrast, the parent radioligand accounted for 42% of the total radioactivity present in mouse urine samples at this time interval. The remaining radioactivity consisted of three major hydrophobic radiometabolites representing 28%, 6.8% and 10% of the total. […] This is possibly due to its high in vivo tumor affinity which results in its rapid sequestration and retention within the tumor cells in a nucleolin dependent manner.
# Blood and urine samples were collected, centrifuged at 12,000 rpm for 15 min, and the supernatants transferred to a fresh centrifuge tube and the centrifugation repeated. The supernatants were treated with CH3CN and centrifuged again to precipitate proteins and the clear supernatants analyzed by radio-HPLC (Method I).
# [2] = Storage stability of formulated radioligand (radio-HPLC); format: physicochemical; conditions: formulated in PBS:EtOH [95:5], stored at 5°C, radio-HPLC analysis
# Method: The 3-(tri-n-butylstannyl)[…] analog 8 was obtained from the N-succinimidyl-3-(tri-n-butylstannyl)benzoate analog 7 using the approach described for the synthesis of 5 (Scheme A). […] The radioiodinated product was well resolved from the tri-n-butylstannyl starting material (Rt>25 min) under the HPLC conditions. […] The radioligand which was formulated in PBS∶EtOH [95∶5] was stable for at least 1 week when stored at 5°C (<2% radiolytic decomposition by radio-HPLC analysis).
# [3] = system: MDA-MB-435 tumor xenografts; format: in vivo, mouse
# Method: At 4 h, kidney and bladder were not visualized likely due to voiding of urine. It is possible that the presence of urine radioactivity in kidney and bladder, at the early time intervals, could have contributed to an overestimation of tissue radioactivity uptake in these organs in the images. […] Intestinal radioactivity was clearly apparent in the 4 h images, which is most likely due to a shift in radioactivity clearance from the renal to hepatobiliary excretion pathway at later time intervals.
# Mouse SPECT/CT imaging studies were performed on a GMI Tri-Modality CT/PET/SPECT small animal scanner (Gamma-Medica Ideas, Inc., Northridge, CA). SPECT images were acquired using a dual-head, high-resolution, low-energy parallel-hole collimator. CT imaging of animals was performed for anatomical co-registration and CT fusion of SPECT images were performed using AMIRA (version 3.1) software (Visage Imaging, San Diego, CA USA). Imaging was performed when tumors reached a 60–100 mm^3 average volume.
# [4] = system: MDA-MB-435 tumor-bearing athymic nude mice; conditions: mouse, in vivo, iv
# Method: Kidney uptake of radioactivity (5.68%ID/g and 10.8% ID/g at 5 and 30 min respectively post-injection) was the highest among all sampled tissues confirming that renal elimination is the major excretory pathway for the radioligand (Table S1). In tumors, radioactivity levels peaked at 30 min post-injection (1.05% ID/g).
# (A) Tissue distribution at 60 min post injection and reported as percent injected dose per gram of tissue (%ID/g). (B) and (C) represent the ratio of radioactivity in tumor to blood and tumor to muscle respectively at various time intervals. All the data are computed as mean +/− SEM.
# Female CD-1 nude mice (nu/nu, 25–28 g) bearing MDA-MB-435 mammary fat pad tumor xenografts on opposite sides were utilized for the biodistribution studies. Four animals (N = 4) were used per time point. […] Selected tissues (blood, heart, liver, lung, spleen, adrenals, tumor, kidney, muscle, whole brain and thyroid) were harvested and tissue samples were assayed for activity using a Gamma Counter. Tissue uptake was computed as % injected dose/gram (%ID/g).
# All the data are computed as mean +/− SEM. (DOCX) Click here for additional data file.
substance,measurement,setting,value
N-(2-{3-[^125I]Iodobenzoyl}aminoethyl)maleimide-F3Cys peptide [[^125I]IBMF3],"Hydrophobic radiometabolite (first named), share of total plasma radioactivity",[1],47%
same,"Hydrophobic radiometabolite (first named), share of total urine radioactivity",[1],28%
same,"Hydrophobic radiometabolite (second named), share of total plasma radioactivity",[1],18%
same,"Hydrophobic radiometabolite (second named), share of total urine radioactivity",[1],6.8%
same,"Hydrophobic radiometabolite (third named), share of total urine radioactivity",[1],10%
same,"Parent radioligand, share of total urine radioactivity",[1],42%
same,Radiolytic decomposition on storage,[2]; 1 week,< 2%
same,Time stable on storage,[2],at least 1 week
same,"Tumor uptake in SPECT images, early","[3]; 15 min post-injection, i.v. 570–610 µCi, MDA-MB-435 xenografts",distinct uptake of radioactivity in tumor as early as 15 min post-injection
same,Tumor visualization in SPECT images at 4 h,"[3]; 4 h post-injection, i.v. 570–610 µCi, MDA-MB-435 xenografts",visualized in the SPECT images at 4 h although at lower levels
same,Tumor radioactivity in SPECT images at later time intervals,"[3]; >4 h post-injection, i.v., MDA-MB-435 xenografts",substantial clearance at later time intervals
same,Thyroid uptake in SPECT images (in vivo deiodination),"[3]; mouse, in vivo, iv",Moderate radioactivity uptake was seen in thyroid
same,Extraction into brain,[4],0.03 %ID/g
same,Radioactivity clearance from blood,[4],> 60%
same,Tumor-to-blood ratio,[4],2.1
same,Tumor-to-muscle ratio,[4],4.3
